Experimental data as given in patent US20250034601A1, “HETERODIMERIC BENZALDEHYDE SYNTHASE, METHODS OF PRODUCING, AND USES THEREOF” (Purdue Research Foundation, priority 2021, published 2025).

Substrate: CC(C)(COP(=O)(O)OP(=O)(O)OC[C@H]1O[C@@H](n2cnc3c(N)ncnc32)[C@H](O)[C@@H]1OP(=O)(O)O)[C@@H](O)C(=O)NCCC(=O)NCCSC(=O)c1ccccc1
Assay: purified protein, by the assay type
Assay type: biochemical, Arabidopsis thaliana
Conditions: other: apparent, measured at 4 mM NADPH, pH 6.5, 28° C.
Protocol: The reaction was initiated by adding a protein and incubated at 28° C. for 30 minutes, and the reactions were then terminated by adding 100 μL of 100% ice-cold methanol (MeOH). The BS enzyme assays were performed at an appropriate enzyme concentration so that reaction velocity was proportional to enzyme concentration and linear during the incubation time period. Km and Vmax were determined by non-linear fit to the Michaelis-Menten equation using Graphpad Prism, v8.2.0.
Triplicate assays were performed for all data points.
After centrifugation at 15,000 g for 20 minutes, 5 μL of the supernatant were subjected to high-performance liquid chromatography (HPLC) analysis using an Agilent 1260 Infinity II system (Agilent Technologies, Inc., Santa Clara, CA) equipped with an InfinityLab Poroshell 120 EC-C18 column (3.0×150 mm, 2.7 μm) maintained at 35° C. Products were separated with a 15-minute linear gradient of 10% aqueous acetonitrile solution to 100% acetonitrile and monitored at 248 nm using a diode array detector (DAD). Benzaldehyde was identified by comparing the retention time and absorption spectrum with authentic standard.
Quantitation was achieved by using standard curve generated from authentic standard and product verification was performed by GC-MS.
Recombinant BS proteins were produced in E. coli by expressing the corresponding coding regions (CDS) subcloned into an expression vector pMAL-c5X (New England BioLabs, Ipswich, MA) containing a maltose binding protein (MBP) tag using ClonExpress II One Step Cloning Kit (Vazyme Biotech Co., Piscataway, NJ).
After sequence verification, the desired plasmids were transformed into Rosetta2 (DE3) pLysS competent cells (MilliporeSigma, Burlington, MA). Single colonies were picked and cultured overnight in 2 ml LB medium containing 100 mg/L carbenicillin and 34 mg/L chloramphenicol at 37° C. Overnight cultures were then diluted 100-fold with LB medium and continued to culture at 37° C. until OD600 reached ˜0.5.
After cooling the cell culture on ice for 10 minutes, isopropyl β-D-1-thiogalactopyranoside (IPTG) was added to a final concentration of 0.1 mM and cells were incubated at 28° C. with shaking for additional 2.5 to 3 hours. After harvesting cells by centrifugation, their lysis and protein purification were performed according to the manufacturer's protocol of Amylose Resin (New England Biolabs, Ipswich, MA).

B1: Arabidopsis thaliana benzaldehyde synthase (AtBS), recombinant heterodimer AtBSα (SEQ ID NO: 5) / AtBSβ (SEQ ID NO: 8), wild type, MBP-tagged (Arabidopsis … (protein)
chain 1: MSNHQTQVLKLLEPWCELKDKVVLVTGASSGIGREICLDLAKAGCQVIAAARRVDRLNSLCSEINSFSSTGIQAAALELDVSSDAATIQKAVREAWDIFGKIDALINNAGIRGNVKSSLDLSEDEWDNVFKTNLKGPWLVSKHVCMLMRDAKRGGSVINISSIAGIRGMLPGGLAYACSKGGVDTMSRMMALELGVHKIRVNSIAPGLFKSEITQGLMQKEWLKNVTERTVPLKVQQTVDPGLTSLVRYLIHDSSQYISGNTYIVDSGATLPGVPIFSSL
chain 2: MENPAKRVLMTSNGDEVSRNIAFHLAKHGCKLVMMGNEGSLRSIVDKIRDSIEGAFPADVIALDMESDSEVAFHAAVQKAWELSGHFDAFLNSYTYQGKVQDILQVSQDEFHRITKINLTAPWFLLKAVATRMKDHGSGGSIVFMATIASGERALYPGADAYASTSAAIHQLVRASAMSLGKHKIRVNMISRGLHLDDEYTASVGRDRAQKLVKDAAPLGQWLNPDTDLYSTVIYLISDGSRFMTGTTVLVDGAQSLTRPRLKSYM
notes: full-length CDS from flower cDNA
  Km: 242.8 ± 28.2 µM
  Vmax: 0.864 µmol/min/mg
  kcat: 2.12 ± 0.08 s⁻¹
  kcat/Km: 8700 ± 1100 M⁻¹ s⁻¹
